Here are results for one molecule from publication PMC5422739, “Leptospira Immunoglobulin-Like Protein B Interacts with the 20th Exon of Human Tropoelastin Contributing to Leptospiral Adhesion to Human Lung Cells” (Frontiers in Cellular and Infection Microbiology, 2017).

What is called Kd is the constant that tells how readily two partners part at equilibrium. Read a low Kd as tighter binding. Usually koff stands for the first-order rate constant of dissociation. In general, kon refers to the rate constant with which the complex forms. A lower kon goes with slower complex formation.

Common to all, as to conditions: both partners purified
The target in assay [1] is T1, tag free LigB12 (amino acids 1,047–1,119 in LigB) (L. interrogans serovar Pomona).
T1 construct: LigB, 12th Ig-like domain, amino acids 1,047–1,119 in LigB; from pET28-SUMO; also called wild-type LigB12; LigB12 WT; source: E. coli Rosetta, purified (Ni-NTA, Ulp-1 digestion, second Ni-NTA, size exclusion)
The assay is described as follows: SPR; Biacore 3000; tag free LigB12 immobilised on CM5 (about 1,000 RU); HTE truncates 0 to 5 μM injected in PBS at 30 μL/min, 25°C; 1:1 Langmuir model. A general note: Surface plasmon resonance follows binding to a sensor surface in real time, without labels.

The target of assay [2] is T2, GST tagged LigB4 (amino acids 307–403 in LigB) (L. interrogans serovar Pomona).
T2 construct: Leptospira immunoglobulin-like protein B (LigB), 4th Ig-like domain, amino acids 307–403 in LigB; constructed into pGEX-6P-1 and pGEX-4T-2; also called GST-LigB4; 4th domain of LigB; source: E. coli Rosetta, purified (glutathione agarose)
Nature of the assay: ELISA; HTE17-20, HTE20, HTE20N, HTE20C or BSA coated (1 μM/well); GST tagged LigB4 or LigB12 titrated 0 to 10 μM, 1 h at 37°C; HRP anti-GST; KD from a saturation fit of OD630. (In general: An ELISA detects its analyte on a solid surface through an enzyme-linked reagent.)

Assay [3] deals with T3, GST tagged LigB12 (amino acids 1,047–1,119 in LigB) (L. interrogans serovar Pomona).
T3 construct: LigB, 12th Ig-like domain, amino acids 1,047–1,119 in LigB; constructed into pGEX-6P-1 and pGEX-4T-2; also called GST-LigB12; 12th domain of LigB; source: E. coli Rosetta, purified (glutathione agarose)
Described as above.

B1: HTE17-20 (17th to 20th exon of human tropoelastin) (domain or fragment)
chain: GVGTPAAAAAAAAAAKAAKYGAAAGLVPGGPGFGPGVVGVPGAGVPGVGVPGAGIPVVPGAGIPGAAVPGVVSPEAAAKAAAKAAKYGARPGVGVGGIPTYGVGAGGFPGFGVGVGGIPGVAGVPGVGGVPGVGGVPGVGIS
Take B1: the results for the dissociation constant Kd in assay [1], in assay [2] and in assay [3] were 850 nM, 780 nM and 780 nM, respectively. Further, in assay [1], the off-rate constant (koff) worked out at 0.0011 s⁻¹. Further, the on-rate constant (kon) in assay [1] is 1300 M⁻¹ s⁻¹.
